In patent US9290570B2, “Pan-ELR+ CXC Chemokine Antibodies” (Eli Lilly and Company, priority 2013, dated 2016):

How the values were obtained:
human CXCR2 = molecular target: T1, human CXCR2 (Homo sapiens, UniProt P25025); assay: U937-huCXCR2 FLIPR activity of wild type and mutant human CXCL8; assay type: cell-based; settings: activity of the CXCL8 variant itself on U937-huCXCR2 cells
T1 construct: expressed in transfected cells; host or cells: U937 monocytic cell line, retrovirally transduced (U937-huCXCR2)
T1 sequence (P25025 1-360): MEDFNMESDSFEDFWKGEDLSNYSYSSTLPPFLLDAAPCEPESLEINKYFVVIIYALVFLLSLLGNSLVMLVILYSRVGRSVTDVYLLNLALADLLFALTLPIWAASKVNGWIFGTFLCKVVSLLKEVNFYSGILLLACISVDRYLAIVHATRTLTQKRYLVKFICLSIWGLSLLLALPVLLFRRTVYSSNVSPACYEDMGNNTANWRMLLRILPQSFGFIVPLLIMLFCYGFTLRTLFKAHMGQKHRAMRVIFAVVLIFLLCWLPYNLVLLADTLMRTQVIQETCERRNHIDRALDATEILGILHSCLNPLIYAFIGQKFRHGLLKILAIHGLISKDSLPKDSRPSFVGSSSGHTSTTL
Procedure: Wild type and mutant human CXCL8 are tested for biologic activity and for neutralization by Antibody 1 using the U937-huCXCR2 assay. U937-huCXCR2 is a monocytic cell line transduced with retrovirus for expression of human CXCR2. A description of the U937-huCXCR2 assay is found below under Neutralizing Assays.
CXCL8 mutants are serially diluted in Assay Buffer containing 0.2% BSA in wells of v-bottom 96-well polypropylene plates. Ligand concentrations are 3 times the final assay concentration (final assay concentrations range from 300 to 0.0051 nM). A cell plate and a ligand plate are loaded into a Fluorescent Imaging Plate Reader (FLIPR-3, Molecular Devices) programmed to transfer 50 μL of ligand to wells of the cell plate. Fluorescence is recorded at 1 second intervals for 90 seconds. The change in fluorescence [delta relative fluorescence units (DRFU), Max RFU-Min RFU] is calculated from images 10 to 90. DRFU versus log (ligand concentration) is plotted and EC50 values are determined by nonlinear regression using Graph Pad Prism. Assays are performed in triplicate over three assay plates.

[1] = system: SKOV3-Luc ovarian cancer cells; assay: SKOV3-Luc ovarian cancer xenograft model; assay type: in vivo, mice; settings: cisplatin 2.5 mg/kg, Antibody 1 20 mg/kg once a week intraperitoneal
Procedure: SKOV3-Luc is a human ovary cancer cell line that expresses firefly luciferase gene. SKOV3-Luc cells are often used in vivo to establish human ovarian adenocarcinoma tumor growth.
SKOV3-Luc ovarian cancer cells were mixed 1:1 with matrigel and implanted subcutaneously in the right rear flank of athymic nude female mice at 3.0×10^6 cells per injection. Mice were randomized into 4 groups at baseline according to tumor volume after the xenografts were grown to an average tumor volume of 200 mm^3 Mice received either control IgG4 antibody (2.5 mg/kg once a week), cisplatin (2.5 mg/kg once a week), Antibody 1 (20 mg/kg once a week), or a combination of cisplatin (2.5 mg·kg once a week) and Antibody 1 (20 mg/kg once a week) by intraperitoneal injection.

| U937 FLIPR activity (EC50) (human CXCR2) | Molecule | tumor growth inhibition compared to isotype control [1] |
| --- | --- | --- |
| Not Active | R6A: R6A point mutant of human CXCL8 (SEQ ID NO: 27) [Antibody R6A] |  |
|  | N.N.[Cl][Pt][Cl] [Cisplatin, cisplatin] | did not show statistically significant tumor growth inhibition |
